System: MS2 coat protein
Assay: apparent KD of MS2 coat protein; designed switch direction (-1 OFF switch, 1 ON switch): 1; higher = weaker reporter binding
Method in brief: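 Transcription of designed RNA switches on Illumina chips was done by stalled E. coli RNA polymerase. SNAP-549-labelled MS2 coat protein was then titrated in doubling steps from 0.7 or 1.5 nM to 3 µM, with steps of 0.8–1.5 h at the lowest and 10–20 min at the highest concentration. The per-design median over clusters of curve-fitted normalised fluorescence is reported as apparent KD.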

[1] = input ligand: microRNA oligo, concentration not stated
[2] = Eterna round: R95, input ligand: FMN 200 uM
[3] = Eterna round: R95, input ligand: microRNA oligo, concentration not stated
[4] = Eterna round: R95, input ligand: none

Sequence | apparent KD of MS2 coat protein (input ligand: FMN 200 uM) [µM] | apparent KD of MS2 coat protein [1] [µM] | apparent KD of MS2 coat protein (input ligand: none) [µM] | apparent KD of MS2 coat protein [2] [µM] | apparent KD of MS2 coat protein [3] [µM] | apparent KD of MS2 coat protein [4] [µM]
UGACACACGGCAGGAUAUGCUUAGCAAAGCUAAGCAGAAGGGCCUCAUGUCGUGGAAAUGUGACAUGAGGAUCACCCAUGUUGC [Omei SS(NG)1 Cv6] (Eterna round: R96, puzzle: Same State NG 1) | 0.0393 | 0.0207 | 0.0922 | – | – | –
UGAGCCGGCACUGAGGAUAUUCAUAUUAAAACAUGAGGAUCACCCAUGUAGGCCAGAAGGCCUUGGGAGAAGGCAGGUCGGCUCU [Mat - Same State 2 - Mod of UCT - D60] (puzzle: Same State 2) | – | – | – | 0.0226 | 0.185 | 0.334
UGCAGCUACGUAGGAUAUCCGAAAGGAAGUGUAGGAGAAGGACGAGAGCCGCCUUACGUACAUGAGGAUCACCCAUGUAGUAGG [PowerStrip SSNG 1.22] (Eterna round: R96, puzzle: Same State NG 1) | 0.0137 | 0.0218 | 0.0259 | – | – | –
UGCAUACAUGAGGAUCACCCAUGUCAACGUAGUCGAGGAUAUGGGCAGCCGUGAGGCGAACCAGAAGGCGAAUUGU [JL-ss1-3.03 ViennaUCT mod] (puzzle: Same State 1) | – | – | – | 0.0231 | 0.0527 | 0.115
UGCCUGAGUCGAGGAUAUUAUGGAUCCUUUAAUACAUGAGGAUCACCCAUGUAAUUAAUUAUACAUGAGAAGGCGACUCAGGCU [SSNG2/11-A3] (Eterna round: R96, puzzle: Same State NG 2) | – | 0.0589 | – | – | – | –
UGCUAUCGAAAACGAUAGCUAAAGUUUGUACAUGAGGAUCACCCAUGUUGUACAAGCUUUUUGCUCGUCUUAAAUAA [JL SD Zipper 16] (Eterna round: R96, puzzle: Sensor for hsa-mir-208a) | 0.0671 | 0.0152 | 0.0624 | – | – | –
UGCUAUUGUAUAUUGGUGCAAGCUUUUUGACAUGAGGAUCACCCAUGUACUCGUCUUAUGUGCAGUCCGUAGACUGC [JL-shm-2.24 Brourd mod] (puzzle: Sensor for hsa-mir-208a) | – | – | – | 0.0478 | 0.0134 | 0.0456
UGCUUCAUGUAAGGAUAUGCAGCCGUUUCGGCUGCAGAAGGUACUAUAAUACAUGAGGAUCACCCAUGUCUCUCGCAUUGCGGG [salish99_SSng1_r04_302] (Eterna round: R96, puzzle: Same State NG 1) | 0.091 | 0.118 | 0.184 | – | – | –
UGGAUCUAGGCUUGCCUGGGUCCAUGUUGACAUGAGGAUCACCCAUGUGUAUUUUUUUAGCUUUUUGUUUGUCAACU [JL A Humble Attempt mod 10] (puzzle: Sensor for hsa-mir-208a) | – | – | – | 0.0262 | 0.013 | 0.0255
UGGCAACAUGAGGAUCACCCAUGUCAAACUAAUCGAGGAUAUGGGAACUAACAACACAAACUAGAAGGCGAACUUG [Altered State 1-10 - Jieux - Same State 1] (puzzle: Same State 1) | – | – | – | 0.0749 | 0.032 | 0.0383
UGGCUCAGACGAGGAUAUACGUGGUCACAUGAGGAUCACCCAUGUCUCGAGCUUCGGCUCGAGGCGUAGAAGGCGUCUGAGCCU [SSNG2/6-A3] (Eterna round: R96, puzzle: Same State NG 2) | 0.112 | 0.133 | 0.151 | – | – | –
UGGCUCAGACGAGGAUAUAUGCGAUCACAUGAGGAUCACCCAUGUCUCGAGCUUCGGCUCGAGGCAUAGAAGGCGUCUGAGCCA [SSNG2/4-A2] (Eterna round: R96, puzzle: Same State NG 2) | 0.0158 | 0.028 | 0.0325 | – | – | –
UGGCUCAGACGAGGAUAUAUGCGAUCACAUGAGGAUCACCCAUGUCUCGAGCUUCGGCUCGAGGCAUAGAAGGUGUCUGAGCCU [SSNG2/4-C3] (Eterna round: R96, puzzle: Same State NG 2) | 0.0239 | 0.0703 | 0.0947 | – | – | –
UGGCUCAGACGAGGAUAUAUGUCUCGAGCUUCGGCUCGAGACAUGAGGAUCACCCAUGUAAUAACAUAGAAGGCGUCUGAGCCU [SSNG2/1-A3] (Eterna round: R96, puzzle: Same State NG 2) | 0.0126 | 0.029 | 0.0343 | – | – | –
UGGCUCAGACUAGGAUAUACGUGGUCACAUGAGGAUCACCCAUGUCUCGAGCUUCGGCUCGAGGCGUAGAAGGAGUCUGAGCCU [SSNG2/6-D3] (Eterna round: R96, puzzle: Same State NG 2) | 0.126 | 0.245 | 0.334 | – | – | –
UGGCUCAGACUAGGAUAUAUGUGGUCACAUGAGGAUCACCCAUGUCUCGAGCUUCGGCUCGAGGCAUAGAAGGAGUCUGAGCCA [SSNG2/5-D2] (Eterna round: R96, puzzle: Same State NG 2) | 1.54 | 0.329 | 0.0265 | – | – | –

Sequence | apparent KD of MS2 coat protein (input ligand: FMN 200 uM) [µM] | apparent KD of MS2 coat protein [1] [µM] | apparent KD of MS2 coat protein (input ligand: none) [µM] | apparent KD of MS2 coat protein [2] [µM] | apparent KD of MS2 coat protein [3] [µM] | apparent KD of MS2 coat protein [4] [µM]
UGGCUGAGUCGAGGAUAUGAUCUUCAUAUAAUAACAUGAGGAUCACCCAUGUAUAAUUACAUGGAUCAGAAGGCGACUCAGCCA [SSNG2/13-B2] (Eterna round: R96, puzzle: Same State NG 2) | – | 0.362 | – | – | – | –
UGGUAACAUGAGGAUCACCCAUGUCAAAUGAAUCGAGGAUAUGGGAAAGGAGAAGAGAAACUAGAAGGCGAAGUUG [Altered State 1-12 - Jieux - Same State 1] (puzzle: Same State 1) | – | – | – | 0.202 | 0.191 | 0.148
UGGUACAUGGGAGGAUAUCAUGUAGAAACAUGAGGAUCACCCAUGUAGGUGGCACGAUUCGUGAAUGAGAAGGCCCAUGUACCU [JL SSNG1 3.61] (Eterna round: R96, puzzle: Same State NG 2) | 0.312 | 0.225 | 0.376 | – | – | –
UGGUACAUGGGAGGAUAUCCUCAGGAGACAUGAGGAUCACCCAUGUAUUAUAAGCCGAAAGGCAUGGAGAAGGCCCAUGUACCU [JL SSNG1 3.82] (Eterna round: R96, puzzle: Same State NG 2) | 0.0141 | 0.112 | 0.123 | – | – | –
UGGUACAUGGGAGGAUAUCCUCAUGAGACAUGAGGAUCACCCAUGUAUUAUAAGCCGAAAGGCAUGGAGAAGGCCCAUGUACCU [JL SSNG1 3.83] (Eterna round: R96, puzzle: Same State NG 2) | 0.025 | 0.269 | 0.455 | – | – | –
UGGUACAUGGGAGGAUAUGGGCAUGAGACAUGAGGAUCACCCAUGUAUUAUAAGCCGAAAGGCAUCUAGAAGGCCCAUGUACCU [JL SSNG1 3.84] (Eterna round: R96, puzzle: Same State NG 2) | 0.0142 | 0.0683 | 0.0924 | – | – | –
UGUACAUGAGGAUCACCCAUGUCUAGACAUGUUAAUAUAAUGUAGGAUAUAUAAAAUUUAAUUUAAUAGAAGGACAAUUUUUUU [JMF's solution 1] (Eterna round: R96, puzzle: Same State NG 3) | 0.278 | 0.218 | 0.297 | – | – | –
UGUCCAGCCUGAGCUGGACAAAAGCAUGUACAUGAGGAUCACCCAUGUUCAUGUACAAGCUUUUUGCUCGUCUUAAU [salish99_208a_r3_031] (puzzle: Sensor for hsa-mir-208a) | – | – | – | 0.497 | 0.0141 | 0.445
UGUCCAGCCUGAGCUGGACAAAAGCAUGUACAUGAGGAUCACCCAUGUUCAUGUACAAGCUUUUUGCUCGUCUUACG [salish99_208a_r3_082] (puzzle: Sensor for hsa-mir-208a) | – | – | – | 0.763 | 0.015 | 0.69
UGUCCAGCCUGAGCUGGACAAAAGCAUGUACAUGAGGAUCACCCAUGUUCAUGUACAAGCUUUUUGCUCGUCUUACU [salish99_208a_r3_081] (Eterna round: R96, puzzle: Sensor for hsa-mir-208a) | 0.534 | 0.0129 | 0.4 | – | – | –
UGUCCAGCCUGAGCUGGACAAAAGCAUGUACAUGAGGAUCACCCAUGUUCAUGUACAAGCUUUUUGCUCGUCUUACU [salish99_208a_r3_081] (puzzle: Sensor for hsa-mir-208a) | – | – | – | 0.36 | 0.0141 | 0.471
UGUCCAGCCUGAGCUGGACAAAAGCAUGUACAUGAGGAUCACCCAUGUUCAUGUACAAGCUUUUUGCUCGUCUUAUG [salish99_208a_r3_052] (puzzle: Sensor for hsa-mir-208a) | – | – | – | 0.517 | 0.0164 | 0.655
UGUCCAGCCUGUGCUGGUCUUUUGCAUGUACAUGAGGAUCACCCAUGUCGUGUACAUGCUUUUUGCUCGUCUUUAAA [Photon Torp-04] (puzzle: Sensor for hsa-mir-208a) | – | – | – | 0.181 | 0.0254 | 0.317
UGUUAACAUGAGGAUCACCCAUGUCAAAUGAAGCGAGGAUAUGGAAAGUAAUAAGAUGAACUAGAAGGUGUAGUAG [Altered State 1-20 - Jieux - Same State 1] (puzzle: Same State 1) | – | – | – | 0.0376 | 0.0594 | 0.062
UGUUAACAUGAGGAUCACCCAUGUCAAAUGAAUCGAGGAUAUGGGAAGUAAGAAGAGAAACUAGAAGGCGAAGUUG [Altered State 1-3 - Jieux - Same State 1] (puzzle: Same State 1) | – | – | – | 0.0972 | 0.0729 | 0.226

From the supplement of paper PMC9170038
